Measured values taken from patent US20220162261A1 (published 2022).
Numbered stars: 1 amine (or outer) side, 2 acyl side, 3 side chain; on linkers, the order of the positions; unused ones are H or OH. Bridge positions count the residues as written; N and C are the ends. Square brackets hold non-standard residues; d marks the D form. Primed or numbered codes have the meaning given here. Ends that are not written are not given here. * marks the point of attachment. Phe(4-OMe)″ = 4-methoxy-phenylalanine, COc1ccc(C[C@H](N[*:1])C(=O)[*:2])cc1; Phe(4-CF3) = N[C@@H](Cc1ccc(C(F)(F)F)cc1)C(=O)O; Phe(4-tBu) = CC(C)(C)c1ccc(C[C@H](N)C(=O)O)cc1; Phe(2,4-Cl2) = N[C@@H](Cc1ccc(Cl)cc1Cl)C(=O)O; Phe(4-CN) = N#Cc1ccc(C[C@H](N)C(=O)O)cc1; Phe(4-F) = N[C@@H](Cc1ccc(F)cc1)C(=O)O; Oleoyl = CCCCCCCC/C=C\CCCCCCCC(=O)*; NMeR = CN[C@@H](CCCNC(=N)N)C(=O)O; Palmitoyl = CCCCCCCCCCCCCCCC(=O)*; hPhe = N[C@@H](CCc1ccccc1)C(=O)O; Myristoyl = CCCCCCCCCCCCCC(=O)*; β3hE = N[C@@H](CCC(=O)O)CC(=O)O; Pen = CC(C)(S)[C@H](N)C(=O)O; Isovaleryl = CC(C)CC(=O)*; Hexanoyl = CCCCCC(=O)*

B1: SEQ ID NO: 45 (peptide)
peptide: Ac-[Pen][NMeR]SDTL[Pen][hPhe]E[dK]-NH2
modifications: disulfide 1-7; not fully specified (residue 10); printed as (Ac Pen N-Me-R S D T L Pen HPhe E k NH2)2 DIG, disulfide Pen-Pen; also: dimer, two subunits joined by DIG linker
B2: SEQ ID NO: 36 (peptide)
peptide: Ac-C[NMeR]SDTL[Pen]W[dK]-NH2
modifications: disulfide 1-7; not fully specified (residue 9); printed as (Ac C N-Me-R S D T L Pen W k NH2)2 PEG13, disulfide C-Pen; also: dimer, two subunits joined by PEG13 linker
B3: SEQ ID NO: 139 (peptide)
peptide: Ac-[Pen][NMeR]SDTL[Pen][Phe(4-CN)][β3hE][dK]-NH2
modifications: disulfide 1-7; not fully specified (residue 10); printed as (Ac Pen N-Me-R S D T L Pen F(4-CN) b-H-E k NH2)2 DIG, disulfide Pen-Pen; also: homodimer, two subunits joined by DIG linker
B4: SEQ ID NO: 106 (peptide)
peptide: Ac-[Pen][NMeR]SDTL[Pen][Phe(4-tBu)][dE][dK]-NH2
modifications: disulfide 1-7; not fully specified (residue 10); printed as (Ac Pen N-Me-R S D T L Pen F(4tBu) e k NH2)2 DIG, disulfide Pen-Pen; also: homodimer: two subunits joined by DIG linker
B5: SEQ ID NO: 107 (peptide)
peptide: Ac-[Pen][NMeR]SDTL[Pen][Phe(4-F)][dE][dK]-NH2
modifications: disulfide 1-7; not fully specified (residue 10); printed as (Ac Pen N-Me-R S D T L Pen F(4-F) e k NH2)2 DIG, disulfide Pen-Pen; also: homodimer: two subunits joined by DIG linker
B6: SEQ ID NO: 122 (peptide)
peptide: Ac-[Pen][NMeR]SDTL[Pen][Phe(4-CF3)][dE][dK]-NH2
modifications: disulfide 1-7; not fully specified (residue 10); printed as (Ac Pen N-Me-R S D T L Pen F(4CF3) e k NH2)2 DIG, disulfide Pen-Pen; also: homodimer: two subunits joined by DIG linker
B7: SEQ ID NO: 20 (peptide)
peptide: C[NMeR]SDTL[Pen]W-NH2
modifications: disulfide 1-7; not fully specified (N-terminus); printed as PEG13 NH2 C N-Me-R S D T L Pen W NH2, disulfide C-Pen; also: N-terminal PEG13 linker, number of subunits not shown
notes: N-terminal linker printed without dimer brackets
B8: SEQ ID NO: 21 (peptide)
peptide: C[NMeR]SDTL[Pen]W-NH2
modifications: disulfide 1-7; not fully specified (N-terminus); printed as PEG25 NH2 C N-Me-R S D T L Pen W NH2, disulfide C-Pen; also: N-terminal PEG25 linker, number of subunits not shown
notes: as for B7
B9: SEQ ID NO: 103 (peptide)
peptide: Ac-[Pen][NMeR]SDTL[Pen][Phe(4-OMe)″][dE][dK]-NH2
modifications: disulfide 1-7; not fully specified (residue 10); printed as (Ac Pen N-Me-R S D T L Pen F(4-OMe) e k NH2)2 DIG; also: homodimer: two subunits joined by DIG linker
B10: SEQ ID NO: 3 (peptide)
peptide: Ac-[Pen][NMeR]SDTL[Pen][Phe(4-CF3)][dE][dK]-NH2
modifications: disulfide 1-7; not fully specified (residue 10); printed as (Ac Pen N-Me-R S D T L Pen F(4-CF3) e k NH2)2 DIG, disulfide Pen-Pen; also: dimer, two subunits joined by DIG linker
B11: SEQ ID NO: 192 (peptide)
peptide: Ac-[Pen][NMeR]SQIQ[Pen][Phe(4-tBu)][β3hE][dK]-NH2
modifications: disulfide 1-7; also: homodimer via IDA linker on D-Lys10 side chains, Alexa-647 label
B12: SEQ ID NO: 101 (peptide)
peptide: Ac-[Pen][NMeR]SDTL[Pen][Phe(2,4-Cl2)][dE][dK]-NH2
modifications: disulfide 1-7; not fully specified (residue 10); also: homodimer: two subunits joined by DIG linker
notes: F(2,4-ci) as printed
B13: SEQ ID NO: 37 (peptide)
peptide: Ac-C[NMeR]SDTL[Pen]W[dK]-NH2
modifications: disulfide 1-7; not fully specified (residue 9); printed as (Ac C N-Me-R S D T L Pen W k NH2)2 PEG25, disulfide C-Pen; also: dimer, two subunits joined by PEG25 linker
B14: SEQ ID NO: 14 (peptide)
peptide: Ac-[Pen][NMeR]SDTL[Pen][hPhe][dE][dK]-NH2
modifications: disulfide 1-7
SMILES: CC(=O)N[C@@H]1C(=O)N(C)[C@@H](CCCNC(=N)N)C(=O)N[C@@H](CO)C(=O)N[C@@H](CC(=O)O)C(=O)N[C@@H]([C@@H](C)O)C(=O)N[C@@H](CC(C)C)C(=O)N[C@H](C(=O)N[C@@H](CCc2ccccc2)C(=O)N[C@H](CCC(=O)O)C(=O)N[C@H](CCCCN)C(N)=O)C(C)(C)SSC1(C)C
B15: SEQ ID NO: 46 (peptide)
peptide: Ac-[Pen][NMeR]SDDL[Pen]WE[dK]-NH2
modifications: disulfide 1-7
SMILES: CC(=O)N[C@@H]1C(=O)N(C)[C@@H](CCCNC(=N)N)C(=O)N[C@@H](CO)C(=O)N[C@@H](CC(=O)O)C(=O)N[C@@H](CC(=O)O)C(=O)N[C@@H](CC(C)C)C(=O)N[C@H](C(=O)N[C@@H](Cc2c[nH]c3ccccc23)C(=O)N[C@@H](CCC(=O)O)C(=O)N[C@H](CCCCN)C(N)=O)C(C)(C)SSC1(C)C

target: T1, human α4β7 integrin on cells (human, UniProt P13612 34-1032; P26010 20-798); test: RPMI8866 cell adhesion to MAdCAM-1
T1 construct: whole, on cells; also called α4β7 cell (Hu); RPMI8866 cells

IC50 [nM]	Binder
> 10	Ac-[Pen][NMeR]SDTL[Pen][Phe(4-tBu)][β3hE][dK](Hexanoyl) (disulfide 1-7) [SEQ ID NO: 170]
> 25	B1
> 50	B2
≤ 10	B3
> 50	Isovaleryl-[Pen][NMeR]SDTL[Pen][Phe(4-tBu)][β3hE][dK]-NH2 (disulfide 1-7) [SEQ ID NO: 177]
> 1000	Ac-[Pen][NMeR]SDTL[Pen][Phe(4-tBu)][β3hE][dK](Oleoyl) (disulfide 1-7) [SEQ ID NO: 174]
> 1000	Palmitoyl-[Pen][NMeR]SDTL[Pen][Phe(4-tBu)][β3hE][dK]-NH2 (disulfide 1-7) [SEQ ID NO: 178]
≤ 10	B4
> 10000	Ac-[Pen][NMeR]SQIQ[Pen][Phe(4-tBu)][β3hE][dK]-NH2 (disulfide 1-7; also: homodimer via DIG linker on D-Lys10 side chains) [SEQ ID NO: 189]
> 1000	Oleoyl-[Pen][NMeR]SDTL[Pen][Phe(4-tBu)][β3hE][dK]-NH2 (disulfide 1-7) [SEQ ID NO: 180]
> 25	B5
> 50	B6
965	Ac-[Pen][NMeR]SDTL[Pen][Phe(4-tBu)][β3hE][dK](Palmitoyl) (disulfide 1-7) [SEQ ID NO: 172]
> 10	Ac-[Pen][NMeR]SDTL[Pen][Phe(4-tBu)][β3hE][dK](Isovaleryl) (disulfide 1-7) [SEQ ID NO: 171]
> 50	B7
> 500	Ac-[Pen][NMeR]SDTL[Pen][Phe(4-tBu)][β3hE][dK](Myristoyl) (disulfide 1-7) [SEQ ID NO: 175]
> 50	B8
> 25	B9
> 100000	Ac-[Pen][NMeR]SQIQ[Pen][Phe(4-tBu)][β3hE][dK]-NH2 (disulfide 1-7; also: homodimer via IDA linker on D-Lys10 side chains) [SEQ ID NO: 190]
> 50	Hexanoyl-[Pen][NMeR]SDTL[Pen][Phe(4-tBu)][β3hE][dK]-NH2 (disulfide 1-7) [SEQ ID NO: 176]
> 1000	Myristoyl-[Pen][NMeR]SDTL[Pen][Phe(4-tBu)][β3hE][dK]-NH2 (disulfide 1-7) [SEQ ID NO: 181]
> 25	B10
> 10000	B11
> 50	B12
> 10	Ac-[Pen][NMeR]SDTL[Pen][Phe(4-tBu)][β3hE][dK](4,4,4‑trifluorobutyryl) (disulfide 1-7) [SEQ ID NO: 169]
> 100	B13

target: T2, rh integrin α4β7 (R&D Systems #5397-A30) (human, UniProt P13612 34-970; P26010 20-723); test: competition ELISA vs MAdCAM-1
T2 construct: bought; coated on a nickel coated plate; also called immobilized α4β7; immobilized α4β7 integrin protein

IC50 [nM]	Binder
> 25	B14
> 1000	B15
